How the values were obtained:
[1] = test system: GES1 cells; assay: Matrigel invasion assay; type: cell-based; conditions: GES1 cells transfected with isoform
Description: (§1) To determine cell migratory capacities, RASA3 wild type and variant transfected AGS and GES1, SNU1967 and AGS, and siRNA treated NCC24 cells were tested using Corning Costar 6.5 mm Transwell with 8.0 μm Pore Polycarbonate Membrane Inserts (3422, Corning, NY, USA). 2.5×10^4 AGS cells and 2×10^4 GES1 cells, 3×10^4 SNU1967 cells and 5×10^4 NCC24 cells were suspended in 0.1 ml serum-free RPMI medium and added to the top of the Transwell insert. 0.6 ml RPMI containing 10% FBS was added into the bottom well as a chemoattractant. After incubation for 24 h at 37° C. in a 5% CO2 incubator, cells were fixed with 3.7% formaldehyde and permeabilized with 100% methanol. Non-migrated cells were scraped off with cotton swabs from the upper surface of the membrane. Migrated cells were stained with 0.5% crystal violet. The number of migrated cells were represented as the total area of migrated cells vs the area of transwell membrane calculated using ImageJ software. For cell invasion assays, the above Transwell inserts were coated with 0.1 ml (300 μg/mL) Corning Matrigel matrix (354234, Corning, NY, USA) for 2 to 4 h at 37° C. before use. All subsequent steps were identical to the migration assay protocol.

[2] = test system: SNU1967 cells; assay: Matrigel invasion assay; type: cell-based; conditions: SNU1967 cells transfected with isoform
Description: as §1

[3] = test system: GES1 cells; assay: Cell proliferation assay (WST-8); type: cell-based; conditions: 24 to 120 hours post-transfection
Description: (§2) 3×10^3 GES1, SNU1967 and AGS cells were plated into 96-well plates in media with 10% fetal bovine serum and left overnight to attach. The next day (Day 0), cells were transiently transfected with wild-type and variant RASA3 constructs using Lipofectamine 3000 (Thermo Scientific). The amount of the constructs was 40 ng/well for AGS and 100 ng/well for GES1 and SNU1967 cells. Cell proliferation was measured by the WST-8 assay (Cell Counting Kit-8, Dojindo) from 24 to 120 hours post-transfection. 10 μL of WST-8 solution was added per well and the absorbance reading was measured at 450 nm after 2 hours of incubation in a humidified incubator.

[4] = test system: AGS cells; assay: Cell proliferation assay (WST-8); type: cell-based; conditions: 24 to 120 hours post-transfection
Description: as §2

[5] = test system: SNU1967 cells; assay: Cell proliferation assay (WST-8); type: cell-based; conditions: 24 to 120 hours post-transfection
Description: as §2

[6] = test system: HLA-A*02:06 T cells; assay: IFN-γ assay: primed T cells co-cultured with AGS cells expressing RASA3 isoforms (ELISA); type: cell-based, human; conditions: T cells primed with the isoform, co-cultured with AGS cells expressing the same isoform, two days
Description: To test the immunogenicity of the RASA3 WT and Variant protein sequences, CD14+ monocytes were isolated from a HLA-A*02:06 donor by positive selection using magnetic beads (Miltenyi, Germany). Dendritic cells were generated by GM-CSF (1000 IU/ml) and IL-4 (400 IU/ml), and further matured by TNF (10 ng/ml), IL-1b (10 ng/ml), IL-6 (10 ng/ml) (Miltenyi, Germany) and PGE2 (1 μg/ml) (Stemcell Technologies, Canada) for 24 hours. The DCs were then primed with AGS cell lysates expressing WT RASA3 or Variant RASA3 for 24 hours, before being co-cultured with T cells from the same donor at the ratio of 1:5. After 5 days of co-culture with DC, T cells were isolated by positive selection using CD3 magnetic beads (Miltenyi, Germany) and co-cultured with AGS cells expressing either WT or Variant RASA3 at the ratio of 20:1 for two days. Supernatants were harvested and IFN-γ release was measured by ELISA (R&D, USA).

[7] = test system: RAS; assay: RAS-GTP assay (Active RAS pull-down) in GES1 cells; type: cell-based; conditions: vs empty vector or RASA3 SomT
Description: GES1 cells were transfected with either RASA3 CanT, RASA3 SomT or empty vector for 48 hours. Cells were harvested for protein in FBS containing media or subjected to over-night serum starvation followed by serum stimulation for 30 minutes prior to harvest. Proteins were extracted using ice-cold lysis buffer (Active RAS Pull-down and Detection Kit) containing protease inhibitor cocktail (Nacalai Tesque). Active RAS fraction was obtained using the Active RAS Pull-down and Detection Kit (Thermo Fisher Scientific) according to manufacturer's instructions. Total RAS was measured in corresponding whole cell protein lysates. β-actin was used as a loading control. Protein concentrations were determined using the Pierce BCA protein assay (Thermo Scientific). SDS sample buffer was added to the lysates and boiled at 100° C. for 5 minutes. Samples were loaded in each well of a 4-15% Mini-Protean TGX gel (Biorad) and transferred to a PVDF membrane using a semi-dry blotting system (Biorad). Membranes were probed with anti-RAS (1 in 200 dilution, supplied in Active RAS Pull-down and Detection Kit), or B-actin (1 in 5000 dilution, Sigma A5316) in 5% milk-PBST at 4° C. over-night. Secondary anti-mouse antibody (LNA931, Amersham) was used at a dilution of 1 in 2000 for 1 hour at room temperature. […]

[8] = test system: GES1 cells; assay: Transwell migration assay; type: cell-based; conditions: GES1 cells transfected with isoform, 24 h
Description: as §1

[9] = test system: AGS cells; assay: Transwell migration assay; type: cell-based; conditions: KRAS mutated AGS cells transfected with isoform, 24 h
Description: as §1

B1: RASA3 CanT: canonical full-length RASA3 protein isoform, transfected construct (protein, UniProt Q14644 1-834, looked up)
chain: MAVEDEGLRVFQSVKIKIGEAKNLPSYPGPSKMRDCYCTVNLDQEEVFRTKIVEKSLCPFYGEDFYCEIPRSFRHLSFYIFDRDVFRRDSIIGKVAIQKEDLQKYHNRDTWFQLQHVDADSEVQGKVHLELRLSEVITDTGVVCHKLATRIVECQGLPIVNGQCDPYATVTLAGPFRSEAKKTKVKRKTNNPQFDEVFYFEVTRPCSYSKKSHFDFEEEDVDKLEIRVDLWNASNLKFGDEFLGELRIPLKVLRQSSSYEAWYFLQPRDNGSKSLKPDDLGSLRLNVVYTEDHVFSSDYYSPLRDLLLKSADVEPVSASAAHILGEVCREKQEAAVPLVRLFLHYGRVVPFISAIASAEVKRTQDPNTIFRGNSLASKCIDETMKLAGMHYLHVTLKPAIEEICQSHKPCEIDPVKLKDGENLENNMENLRQYVDRVFHAITESGVSCPTVMCDIFFSLREAAAKRFQDDPDVRYTAVSSFIFLRFFAPAILSPNLFQLTPHHTDPQTSRTLTLISKTVQTLGSLSKSKSASFKESYMATFYEFFNEQKYADAVKNFLDLISSSGRRDPKSVEQPIVLKEGFMIKRAQGRKRFGMKNFKKRWFRLTNHEFTYHKSKGDQPLYSIPIENILAVEKLEEESFKMKNMFQVIQPERALYIQANNCVEAKDWIDILTKVSQCNQKRLTVYHPSAYLSGHWLCCRAPSDSAPGCSPCTGGLPANIQLDIDGDRETERIYSLFNLYMSKLEKMQEACGSKSVYDGPEQEEYSTFVIDDPQETYKTLKQVIAGVGALEQEHAQYKRDKFKKTKYGSQEHPIGDKSFQNYIRQQSETSTHSI
modifications: full-length
notes: canonical full-length RASA3 protein isoform, transfected construct
**Q.** B1 was tested. Which invasion [1] did it give?
**A.** did not

**Q.** What about the invasion [2] of the same molecule?
**A.** significantly suppressed

**Q.** And the cellular proliferation rate [3]?
**A.** did not alter

**Q.** And the cellular proliferation rate [4]?
**A.** did not alter

**Q.** And the cellular proliferation rate [5]?
**A.** did not alter

**Q.** What about the “IFNγ release from primed T cells” value [6] of the same molecule?
**A.** significantly more

**Q.** What about the “levels of active GTP-bound RAS” value [7] of the same molecule?
**A.** lower levels of active GTP-bound RAS

**Q.** And the migration [8]?
**A.** did not

**Q.** What about the migration [9] of the same molecule?
**A.** potently suppressed

**Q.** What about the migration ([9]; listed as RASA3 WT) of the same molecule?
**A.** more potent migration suppression

Reference: patent publication US12442042B2, “Epigenomic profiling reveals the somatic promoter landscape of primary gastric adenocarcinoma” (AGENCY FOR SCIENCE, TECHNOLOGY AND RESEARCH, priority 2016, dated 2025)
